Where a chain is given by its changes, count along the chain named.
T1: Activin A (human, UniProt P08476 311-426)
T1 construct: Homodimer of two βA subunits; bought from R&D Systems (#338-AC); also called inhibin-βA dimer; human Activin A
T1 sequence: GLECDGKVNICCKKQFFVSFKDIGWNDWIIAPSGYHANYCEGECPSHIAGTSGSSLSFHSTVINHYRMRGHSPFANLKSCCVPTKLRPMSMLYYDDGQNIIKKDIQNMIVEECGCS

T2: Activin B (human, UniProt P09529 293-407)
T2 construct: Homodimer of two βB subunits; R&D Systems #659-AB
T2 chain: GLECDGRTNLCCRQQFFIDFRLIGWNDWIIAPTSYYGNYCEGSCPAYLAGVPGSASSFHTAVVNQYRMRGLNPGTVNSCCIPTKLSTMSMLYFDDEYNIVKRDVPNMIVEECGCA

B1: H4H10423P (antibody, human IgG4, V domains shown)
VH: QVQLQQSGPGLLKPSQTLSLTCAISGDSVSSNSAAWSWIRQSPSRGLEWLGRTYYRANWFNDYALSVKSRITINPVTSTNHFSLQLHSVTPEDTAVYYCAREGALGYYFDSWGQGTLVTVSS
VL: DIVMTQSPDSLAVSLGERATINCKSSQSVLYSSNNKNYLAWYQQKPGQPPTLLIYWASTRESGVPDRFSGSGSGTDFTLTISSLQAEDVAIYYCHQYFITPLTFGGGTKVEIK
B2: H4H10442P2 (antibody, human IgG4, V domains shown)
VH: QVQLQESGPGLVKPSETLSITCTVSGGSFSSHFWTWIRQPPGKGLEWIGYLHYSGGTSYNPSLKSRVIISVDTSKNQFSLKLNSVTAADTAVYYCARARSGITFGGLIVPGSFDIWGQGTMVTVSS
VL: not shown
B3: H4H10468P2 (antibody, human IgG4, V domains shown)
VH: B2 VH with I20L, T35S, L51I, H52Y, S58H, K64E, I68T
VL: not shown
B4: H4H10446P2 (antibody, human IgG4, V domains shown)
VH: QVQLQESGPGLVKPSETLSLTCTVSGGSFSSHFWSWIRQPPGKGLEWIGYILYTGGTSFNPSLKSRVSMSVGTSKNQFSLKLSSVTAADTAVYYCARARSGITFTGIIVPGSFDIWGQGTMVTVSS
VL: not shown
notes: also called H4H20446

Target: T1, Activin A
Assay: Octet cross-competition; binder on anti-hFc tip; 50 nM hActivin A mixed with 1 uM Isotype control 13 (-) (col 13); dark grey box
Experimental: (§1) No. 8,309,082) and Control 3 (MAB3381, available from R&D Systems, Inc., Minneapolis, Minn.) were also included in the assays. All assays were performed at 25° C. with a microtiter plate shaking rate of 1000 rpm in Octet HBST buffer (0.01 M HEPES pH7.4, 0.15M NaCl, 3 mM EDTA, 0.05% v/v Surfactant P20, 0.1 mg/mL BSA) according to manufacturer's instructions (ForteBio Corp., Menlo Park, Calif.). […] Any remaining anti-hFc binding sites on the tips were blocked by incubating the tips in a 50 ug/mL solution of irrelevant antibody for 5 minutes.

| binding response | Binder |
| --- | --- |
| 0.26 | B1 |
| 0.26 | B2 |
| 0.28 | B3 |
| 0.26 | B4 |

Target: T1, Activin A
Assay: Octet cross-competition; binder on anti-hFc tip; 50 nM hActivin A pre-bound with 1 uM Control 1 (col 10); white box
Experimental: as §1

| binding response | Binder |
| --- | --- |
| 0.6 | B1 |
| 0.99 | B2 |
| 1.08 | B3 |
| 0.83 | B4 |

Target: T1, Activin A
Assay: Octet cross-competition; binder on anti-hFc tip; 50 nM hActivin A pre-bound with 1 uM H4H10436P2 (col 8); white box
Experimental: as §1

| binding response | Binder |
| --- | --- |
| 1.49 | B1 |
| 1.44 | B2 |
| 1.66 | B3 |
| 1.61 | B4 |

Target: T1, Activin A
Assay: SPR, captured mAb, 37C; no dissociation observed, kd fixed
In short: (§2)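 Antibodies were captured and activin variants injected, with association monitored for 240 s and dissociation for 600 s. Runs were at 25 °C or 37 °C as indicated per assay. KD was calculated as kd/ka and t1/2 as ln2/(60·kd) in min, from the fitted rate constants.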

| koff [s⁻¹] | Binder |
| --- | --- |
| ≤ 5e-05 | B1 |
| ≤ 5e-05 | B2 |
| ≤ 5e-05 | B3 |
| ≤ 5e-05 | B4 |

Target: T1, Activin A
Assay: Octet cross-competition; binder on anti-hFc tip; 50 nM hActivin A pre-bound with 1 uM Control 3 (col 11); white box
Experimental: as §1

| binding response | Binder |
| --- | --- |
| 0.79 | B1 |
| 0.99 | B2 |
| 0.79 | B3 |
| 1.21 | B4 |

Target: T1, Activin A
Assay: Octet cross-competition; binder on anti-hFc tip; 50 nM hActivin A pre-bound with 1 uM H4H10429P (col 6); white box
Experimental: as §1

| binding response | Binder |
| --- | --- |
| 1.48 | B1 |
| 1.55 | B2 |
| 1.68 | B3 |
| 1.61 | B4 |

Target: T1, Activin A
Assay: Octet cross-competition; binder on anti-hFc tip; 50 nM hActivin A pre-bound with 1 uM H4H10430P (col 5); black box
Experimental: as §1

| binding response | Binder |
| --- | --- |
| 0.28 | B1 |

Target: T1, Activin A
Assay: Octet cross-competition; binder on anti-hFc tip; 50 nM hActivin A pre-bound with 1 uM H4H10468P2 (col 2); black box
Experimental: as §1

| binding response | Binder |
| --- | --- |
| 0.58 | B1 |
| 0.36 | B2 |
| 0.36 | B4 |

Target: T1, Activin A
Assay: Octet cross-competition; binder on anti-hFc tip; 50 nM hActivin A pre-bound with 1 uM H4H10442P2 (col 3); black box
Experimental: as §1

| binding response | Binder |
| --- | --- |
| 0.59 | B1 |
| 0.4 | B3 |
| 0.39 | B4 |

Target: T1, Activin A
Assay: Octet cross-competition; binder on anti-hFc tip; 50 nM hActivin A pre-bound with 1 uM H4H10423P (col 4); black box
Experimental: as §1

| binding response | Binder |
| --- | --- |
| 0.27 | B2 |
| 0.41 | B3 |
| 0.33 | B4 |

Target: T1, Activin A
Assay: Octet cross-competition; binder on anti-hFc tip; 50 nM hActivin A mixed with 1 uM Isotype control 12 (-) (col 12); dark grey box
Experimental: as §1

| binding response | Binder |
| --- | --- |
| 0.39 | B1 |
| 0.46 | B2 |
| 0.41 | B3 |
| 0.47 | B4 |

Target: T1, Activin A
Assay: SPR, captured mAb, 25C; no dissociation observed, kd fixed
In short: as §2

| koff [s⁻¹] | Binder |
| --- | --- |
| ≤ 5e-05 | B2 |
| ≤ 5e-05 | B3 |
| ≤ 5e-05 | B4 |

Target: T1, Activin A
Assay: Octet cross-competition; binder on anti-hFc tip; 50 nM hActivin A pre-bound with 1 uM H4H10440P2 (col 9); white box
Experimental: as §1

| binding response | Binder |
| --- | --- |
| 1.31 | B1 |
| 1.5 | B2 |
| 1.7 | B3 |
| 1.67 | B4 |

Target: T2, Activin B
Assay: SPR, captured mAb, 25C; 25 C
Experimental: Antibody-antigen association was monitored for 240 seconds while dissociation in buffer was monitored for 600 seconds. Kinetic association and dissociation rate constants were determined by processing and fitting the data using Scrubber software version 2.0c. Binding equilibrium dissociation constants (KD) and dissociative half-lives (t_{1/2}) were then calculated from the kinetic rate constants as: KD (M)=kd/kₐ and t_{1/2} (min)=[ln 2/(60*kd)]. (NB=no binding observed under the conditions used; NT=not tested).

| Kd [pM] | koff [s⁻¹] | kon [M⁻¹ s⁻¹] | t1/2 [s] | Binder |
| --- | --- | --- | --- | --- |
| 61800 | 0.0302 | 489000 | 24 | B1 |

Target: T1, Activin A
Assay: Octet cross-competition; binder on anti-hFc tip; 50 nM hActivin A pre-bound with 1 uM H4H10430P (col 5); white box
Experimental: as §1

| binding response | Binder |
| --- | --- |
| 1.33 | B2 |
| 1.41 | B3 |
| 1.39 | B4 |

Target: T1, Activin A
Assay: SPR, captured mAb, 25C
In short: as §2

| Activin A-20 nM (RU) | Kd [pM] | koff [s⁻¹] | kon [M⁻¹ s⁻¹] | t1/2 [h] | Binder |
| --- | --- | --- | --- | --- | --- |
| 19.4 | 32.6 | 0.000109 | 3.33e+06 | 1.77 | B1 |
| 31.3 | ≤ 4.55 | – | 1.1e+07 | ≥ 3.85 | B2 |
| 21.7 | ≤ 6.36 | – | 7.86e+06 | ≥ 3.85 | B3 |
| 24.1 | ≤ 3.88 | – | 1.29e+07 | ≥ 3.85 | B4 |

Target: T2, Activin B
Assay: SPR, captured mAb, 25C
In short: as §2

| 50 nM Ag Bound (RU) | binding result | Binder |
| --- | --- | --- |
| 3.4 | no binding (tested: 50 nM) | B2 |
| 6.2 | – | B3 |
| 3.6 | – | B4 |

Target: T1, Activin A
Assay: Octet cross-competition; binder on anti-hFc tip; 50 nM hActivin A pre-bound with 1 uM H4H10432P2 (col 7); white box
Experimental: as §1

| binding response | Binder |
| --- | --- |
| 1.32 | B1 |
| 1.59 | B2 |
| 1.73 | B3 |
| 1.68 | B4 |

Target: T1, Activin A
Assay: Octet cross-competition; binder on anti-hFc tip; 50 nM hActivin A pre-bound with 1 uM H4H10446P2 (col 1); black box
Experimental: as §1

| binding response | Binder |
| --- | --- |
| 0.51 | B1 |
| 0.35 | B2 |
| 0.33 | B3 |

Target: T1, Activin A
Assay: SPR, captured mAb, 37C
In short: as §2

| Activin A-20 nM (RU) | Kd [pM] | kon [M⁻¹ s⁻¹] | t1/2 [h] | Binder |
| --- | --- | --- | --- | --- |
| 25.2 | ≤ 12.6 | 3.95e+06 | ≥ 3.85 | B1 |
| 40.5 | ≤ 3.48 | 1.44e+07 | ≥ 3.85 | B2 |
| 24.5 | ≤ 4.1 | 1.22e+07 | ≥ 3.85 | B3 |
| 31.5 | ≤ 3.25 | 1.54e+07 | ≥ 3.85 | B4 |

Target: T2, Activin B
Assay: SPR, captured mAb, 37C
In short: as §2

| 50 nM Ag Bound (RU) | binding result | Binder |
| --- | --- | --- |
| 4.4 | – | B2 |
| 3.4 | no binding (tested: 50 nM) | B3 |
| 3.8 | no binding (tested: 50 nM) | B4 |

Source: patent US20150037339A1 (Regeneron, published 2015)
